Experimental data: article PMC5788916, “The SAM domain of mouse SAMHD1 is critical for its activation and regulation” (Nature Communications, 2018)
Where “and” joins values, the source holds several entries; their conditions need not be identical. Identical values can stand only once. One block for each molecule: values may come before it.

Experiments:
[1] = target: full-length mouse SAMHD1 (mSAMHD1), wild type (mouse) (UniProt Q60710); test: SEC; Superdex 200 10/300 GL; 2 mg/ml, 200 ul; 50 mM Tris-HCl pH 8.0, 150 mM NaCl, 5 mM MgCl2, 0.5 mM TCEP; after addition of dGTP-α-S (methods: nucleotide 4 mM final); read-out: assembly of monomers or dimers into tetramers
[2] = target: full-length mouse SAMHD1 (mSAMHD1), wild type (mouse) (UniProt Q60710); test: SEC; Superdex 200 10/300 GL; 2 mg/ml, 200 ul; 50 mM Tris-HCl pH 8.0, 150 mM NaCl, 5 mM MgCl2, 0.5 mM TCEP; no nucleotides added
[3] = target: full-length mouse SAMHD1 (mSAMHD1), wild type (mouse) (UniProt Q60710); test: not stated; up to 24 h of assembly with dGTP-α-S (Supplementary Fig. 1a)
[4] = target: full-length mouse SAMHD1 (mSAMHD1), wild type (mouse) (UniProt Q60710); test: AUC; sedimentation velocity, 0.8-1.3 mg/mL, 20 °C, 50 mM Tris-HCl pH 8.0, 150 mM NaCl, 5 mM MgCl2, 0.5 mM TCEP; with 150 uM nucleotides (dGTP-α-S)
[5] = target: full-length mouse SAMHD1 (mSAMHD1), wild type (mouse) (UniProt Q60710); test: AUC; sedimentation velocity, 0.8-1.3 mg/mL, 20 °C, 50 mM Tris-HCl pH 8.0, 150 mM NaCl, 5 mM MgCl2, 0.5 mM TCEP; protein alone, no nucleotides added
[6] = target: full-length mouse SAMHD1 (mSAMHD1), wild type (mouse) (UniProt Q60710); test: crystal structure; 1-Allo: co-crystallised with 4 mM dGTP-α-S; space group P2(1)2(1)2, 2 copies in the asymmetric unit; 3.4 Å
[7] = target: full-length mouse SAMHD1 (mSAMHD1), wild type (mouse) (UniProt Q60710); test: SEC; Superdex 200 10/300 GL; 2 mg/ml, 200 ul; 50 mM Tris-HCl pH 8.0, 150 mM NaCl, 5 mM MgCl2, 0.5 mM TCEP; after addition of dGTP-α-S (methods: nucleotide 4 mM final); read-out: assembly of monomers or dimers into tetramers; remark: listed apart in the source
[8] = target: full-length mouse SAMHD1 (mSAMHD1), wild type (mouse) (UniProt Q60710); test: crystal structure; No-Allo (0-Allo): crystallised without nucleotides; space group C2, 4 copies in the asymmetric unit; 3.5 Å
[9] = target: full-length mouse SAMHD1 (mSAMHD1), wild type (mouse) (UniProt Q60710); test: AUC; sedimentation velocity, 0.8-1.3 mg/mL, 20 °C, 50 mM Tris-HCl pH 8.0, 150 mM NaCl, 5 mM MgCl2, 0.5 mM TCEP; with 150 uM nucleotides (dGTP-α-S); remark: listed apart in the source
[10] = target: mouse SAMHD1 HD domain, isoform 2 (residues 145-651) (mouse); test: AUC; sedimentation velocity, 0.8-1.3 mg/mL, 20 °C, 50 mM Tris-HCl pH 8.0, 150 mM NaCl, 5 mM MgCl2, 0.5 mM TCEP; protein alone, no nucleotides added
[11] = target: mouse SAMHD1 HD domain, isoform 2 (residues 145-651) (mouse); test: SEC; Superdex 200 10/300 GL; 2 mg/ml, 200 ul; 50 mM Tris-HCl pH 8.0, 150 mM NaCl, 5 mM MgCl2, 0.5 mM TCEP; after addition of dGTP-α-S (methods: nucleotide 4 mM final); read-out: assembly of monomers or dimers into tetramers
[12] = target: mouse SAMHD1 HD domain, isoform 2 (residues 145-651) (mouse); test: AUC; sedimentation velocity, 0.8-1.3 mg/mL, 20 °C, 50 mM Tris-HCl pH 8.0, 150 mM NaCl, 5 mM MgCl2, 0.5 mM TCEP; with 150 uM nucleotides (dGTP-α-S)
[13] = target: mouse SAMHD1 HD domain, isoform 2 (residues 145-651) (mouse); test: as above; remark: listed apart in the source
[14] = target: the molecule itself; test: SEC; Superdex 200 10/300 GL; 2 mg/ml, 200 ul; 50 mM Tris-HCl pH 8.0, 150 mM NaCl, 5 mM MgCl2, 0.5 mM TCEP; after addition of dGTP-α-S (methods: nucleotide 4 mM final); read-out: assembly of monomers or dimers into tetramers
[15] = target: the molecule itself; test: AUC; sedimentation velocity, 0.8-1.3 mg/mL, 20 °C, 50 mM Tris-HCl pH 8.0, 150 mM NaCl, 5 mM MgCl2, 0.5 mM TCEP; protein alone, no nucleotides added

- stoichiometry N [1]: 4
- stoichiometry N [2]: 2 and 4
- stoichiometry N [3]: 4
- stoichiometry N [4]: 4
- stoichiometry N [5]: 2 and 4
- stoichiometry N [6]: 4
- stoichiometry N [7]: 2
- stoichiometry N [8]: 4
- stoichiometry N [9]: 2
Molecule: full-length mouse SAMHD1 (mSAMHD1), wild type (from UniProt Q60710 1-658) (enzyme)

- stoichiometry N [10]: 2
- stoichiometry N [11]: 4
- stoichiometry N [12]: 2
- stoichiometry N [13]: 4
Molecule: mouse SAMHD1 HD domain, isoform 2 (residues 145-651) (domain or fragment)

B1: mouse SAMHD1 HD domain, isoform 1 (residues 145-658) (domain or fragment, UniProt Q60710 145-658, looked up)
chain: DLMKVFNDPIHGHIEFHPLLIRIIDTPQFQRLRYIKQLGGGYYVFPGASHNRFEHSLGVGYLAGCLVRALAEKQPELQISERDILCVQIAGLCHDLGHGPFSHMFDGRFIPRARPEKKWKHEQGSIEMFEHLVNSNELKLVMKNYGLVPEEDITFIKEQIMGPPITPVKDSLWPYKGRPATKSFLYEIVSNKRNGIDVDKWDYFARDCHHLGIQNNFDYKRFIKFARICEVEYKVKEDKTYIRKVKHICSREKEVGNLYDMFHTRNCLHRRAYQHKISNLIDIMITDAFLKADPYVEITGTAGKKFRISTAIDDMEAFTKLTDNIFLEVLHSTDPQLSEAQSILRNIECRNLYKYLGETQPKREKIRKEEYERLPQEVAKAKPEKAPDVELKAEDFIVDVINVDYGMEDKNPIDRVHFYCKSNSKQAVRINKEQVSQLLPEKFAEQLIRVYCKKKDGKSLDAAGKHFVQWCALRDFTKPQDGDIIAPLITPLKWNNKTSSCLQEVSKVKTCLKF
notes: mouse SAMHD1 isoform 1, HD domain without the SAM domain, residues 145-658; The text speaks of 'mHD' and gives limits for both isoforms; source: E. coli BL21 (DE3), purified (Ni-NTA, size-exclusion chromatography)
- stoichiometry N [14]: 4
- stoichiometry N [15]: 2

B2: human SAMHD1 L77F/C80F/H111R triple mutant (FFR) (enzyme, UniProt Q9Y3Z3 1-626, looked up)
chain: MQRADSEQPSKRPRCDDSPRTPSNTPSAEADWSPGLELHPDYKTWGPEQVCSFLRRGGFEEPVLLKNIRENEITGAFLPFLDESRFENLGVSSLGERKKLLSYIQRLVQIRVDTMKVINDPIHGHIELHPLLVRIIDTPQFQRLRYIKQLGGGYYVFPGASHNRFEHSLGVGYLAGCLVHALGEKQPELQISERDVLCVQIAGLCHDLGHGPFSHMFDGRFIPLARPEVKWTHEQGSVMMFEHLINSNGIKPVMEQYGLIPEEDICFIKEQIVGPLESPVEDSLWPYKGRPENKSFLYEIVSNKRNGIDVDKWDYFARDCHHLGIQNNFDYKRFIKFARVCEVDNELRICARDKEVGNLYDMFHTRNSLHRRAYQHKVGNIIDTMITDAFLKADDYIEITGAGGKKYRISTAIDDMEAYTKLTDNIFLEILYSTDPKLKDAREILKQIEYRNLFKYVGETQPTGQIKIKREDYESLPKEVASAKPKVLLDVKLKAEDFIVDVINMDYGMQEKNPIDHVSFYCKTAPNRAIRITKNQVSQLLPEKFAEQLIRVYCKKVDRKSLYAARQYFVQWCADRNFTKPQDGDVIAPLITPQKKEWNDSTSVQNPTRLREASKSRVQLFKDDPM
notes: human SAMHD1 with three SAM domain residues changed to their mouse counterparts; compared with full-length WT hSAMHD1; also called FFR mutant; source: purified
- stoichiometry N [14]: 4
